From the DeepSol protein solubility set

Test: soluble on expression in E. coli; label from the status in PepcDB or PDB records

Sequence | soluble on expression in E. coli
MSHAVARLRAERLARSNKPFIARGSRAERCPDCRVIATHCLCAWKPRVQADAGVCLLMHDTEPLKPTNTGWLIADLIEDTWAFGWLRTAVDERLLALLDDPRWQPYIVFPGEFVAQERVVSEVVREPGKRPLFILLDATWTEARKMFRKSPYLDRFPVLSLQAEQMSRYRLRRSKRDDHFCTAEVAAMCLDLAGDGQASQALDAYLDVFSLHYLSGKRRLPLDEQDDTHQRLHTFLLEHHHHHH | soluble
MSHINLYSLPTDHKNMIRCRYCEKIYKIDNGSSGFIRHLRCKHPNVLYQMGAISNGKEYNLITKQETLSIDTNNEINLRDDDDFMMMKEFSSNQILVNFLSQLDLPTNDVNRVLGKRHRISPTPTINSSVTPNEEHEPDLKMFNSGDTLQNFLIDIDNHIRQKNQESQEAIGTGEESTSASALDMPSSQKESREPSPNSSMLDETNGGTETGDSSPTPFNPARPFGCVICPCSFPRVKDLTIHVTSVHRTRFRCNTCLAEFVQPQHLEHHYSISHAGTSTGTVVNT | not soluble
MSHQEQQEQEIEALEAIYSEEEIHVASRDYPNIELSIQLKSNQYEDPTDDDFDVELGIEFTENYPDEIPIITLNGIEDAFTAERIAESIDKLRSVAEENLGMVMVFAIVSALQDEIGELVDVKKRAKEEKVEIEKEKKEAESRKKFEGTVVTPDTFRAWKDRFDEERKAEIDAAEKERLASLAGRLTGRQLFLRDATLNLSDVTLIGAQDEVEIDESLFDNEELEGLEMDSEEEEEDDEE | soluble
MSIIEDNKISFVIPTINEEKTIGSVIDGIHENFPNAEIILVDTNSTDKTKEIAKSKGATVIEEPRKGYGRAYQTGIPAAKGDIIVCMDGDGTYPTDIVKPLIEILILDKVDFISCDRITFRTSTNYTTLHYVGNMVLNLTIRILFKVRMVDSQSGMWIFRSELYKKMKNLGYGMSFSQNIKIEAVRHGVFIEIPIRYGVRITKPKLKTWHDGFHNLFALFIKRVSELEHHHHHH | soluble
MSIKIDLNKCVGCQKCINICPGSLIDKNNDGKAYIKYPKDCWGCTACLKECKFKAIKYFLGADIGGNGSYMYVSEKGEELEWHMINEDGKEKIITTSRKESNKYLEHHHHHH | not soluble
MSIKIGLLGFGTVASGMPFLLKENKDKITAASGTKLEIAKVLVKDDDEKKRLLAAGNDFNFVTNVDDILSDDDIAIVVELMGRIEPAKTFITKALEAGKHVVSANKDLIATHGKELIRLAQDKGVAFYYEAAVAGGIPILRTLANSLTSDKVTRILGVLNGTSNFMMTKMVDEGWTYEAALKKAQELGYAESDPTNDVEGIDAAYKAVILSQFGFGMTIDFDQVVHQGISSITPDDVAMAQQLGYVIKLVGSVEETPSGIFAEVSPTFLPKSHPLASVNDVMNAVFVESIGIGESMYYGPGAGQKPTATSVVADVIRIARRIKDGNVGKCFNEFIRETKIAHPDDVKSHYYFAINTADEKGKMLRLAEIFNSEDISFEQVLQQKANGEQARVVIITHSLSKSQLVNVTEKLQAVADFKLLNTFKVLGE | not soluble
MSIRDERKQQSRQALLDAALQLSTGGRSFSSISLREVAREVGLVPTAFYRHFQDMDALGQELVDQVALHIKSLIHQLGQSYLQQVSTHPDSSIELFFQAINHSPLEWQFMIAERWGGSAAVRQAIAREIEDLIEDLATDLRKLPMFEHIQDSQDLKVLSTILINLSFTWAMTWLSLASQYQDAALSQHQQQFVENANTQIRLMFRGVANWG | not soluble
MSISFEKLRITLKSVGVPVTRDKAEKGTDYPYIVYSNVSQGKKMASSKVHRRMPYYQISFYTTGTEKDLIALENALEEAGIPYTDFVGIQGDENDDTVTNFYTYVRCIEDGK | soluble
MSISGIGSYAASMLTPSRGSAGTSASAAATAADNTPATKSGSGGVQKTDFTQMTHKQLFDWVNSKIASGEMSFDESSTFISMTVSMPVDGSSMAPDDKQPVNFMQSVRDGMERALQTNDSDLFARLQTALHTMQRSQGEVRGVNMTV | not soluble
MSKDDPINSIFFEHQEAALCAQHALNMLLQDALYKWQDLRDLAIQMDKMEQQILGNANPTPGRSENMNESGYFSIQVLEKALETFSLKLTNIENPAMVDYKNNPLTARAYICNLREHWFVLRKFGNQWFELNSVNRGPKLLSDTYVSMFLHQVSSEGYSIFVVQGVLPRSDADDLISLCPVVPPKVTPKKEQKLEKVMTKFFNTVGKRLGGGSGAPPDSQEEKDLAIAFAMSMETKDGSEVSRSSAEIDEENLRKAIELSQAPGPSEPAEIPLLTRSRSSTPPGASEPFSNAEQQRRDRQKFLERFEKKKEERNDEK | not soluble
MSKGHSLQDPYLNTLRKERVPVSIYLVNGIKLQGQIESFDQFVILLKNTVSQMVYKHAISTVVPSRPVRLPSGDQPAEPGNA | soluble
MSKILDVQGIVKRATELNDFGHLLEHVPYAKFIGMKVERFGDELIFKLPAKDDNIGNPILPAIHGGVIAGFMEMSAIVQLMVFMQTAKVPKVVDFSIDYLRAGLHKDSFAECRITRQGRRVANVSINCWQTNRKQLIATARAHFLIDLEHHHHHH | not soluble
MSKILGDGHVRKTVDLPDSALRLNYEKKYYEPENGDHLIFSAQLQNGRYSALTAIKPTDLLQVYGSLSYLDEQLKFGHVSIHGRTAKVFVPFSTRTTNGACWYGQGAYIDKPYLIYIFRQEEAHGCKFVAWAIYDDTRKTTSVPPTPTDIQNTSHMKKLGPPTAVQRQSDHQSVEFVQAQSGVIYDISDNYVISVTSPTCQNVEFAPTLYESWMRPGRFITFDGRRVSDVKTSKLMGSNPEDMGSIYPIRKLTPLTITISAIMNKVSHGKAGWAWNDHVGRIYIPWNSTDRYMQASKPLPFTPVHLEIAYNGKHDDIPWVACGSSLVEEQEYDQIVDENSRMLKTEDNWKIQSVVDGPENPSIFLAKFDEKGLKRTAFAKVIDLNSGNIPPTGTLVRITYYAQERHGRHAMRCVLVTTMEKVERFPKVHSIINGSGEKHFPMMYEQPIPKKQVIPPTPVQRVQAAPPPAKNCWNLKNLGSPAAQPSVQDFPTVTGDEDDNIFVEETNTALPPPGFVPPGLVAPPGLPPPPGLPAVPLSTDLAYDFKMTSSIPMTNGLGHLRLGSVWSGTPVEAKQEEPLHYFQQQDNFLGSSFGPISSTFSADNFFTELTASISQPSTSSVVNSGPISDLRNTQSEASSPGLKSDGNEPVEETNCWSSLEAATNGNNPFNSSFSYGFPHMDLPIYQKMMPNANDILKPMPLVEEELKPATSATHSEADSCTCGTEQLIWDLWQNPHFIAAFAASDPETFKRVDAKRKLFSLSNHR | not soluble
MSKIVEVSKSPYAKLKTIPVGSVRVNGFMGKYFETLVNVTLPTQYDLLENTGRLDNFRIAAGKMEGSYKTLFPFDDTDVYKWAETVSFALANRKLPELEKILDSVIEEVKAAQDEDGYLGTYLSGDRKKERWTNLAWNHELYNAGHLIQAAVAHRRVTGKNTLFEVAKRFADHIYNTFGPEKKEGAPGHPEVEMALVELYRETGDRKYLDLARYFIYARGKGLASVPRNPGPEYFIDHKPFVELEEITGHAVRALYLCSGATDLYLETGDEKIWQALNRLWENFVTKKMYITGGAGSRHDWESFGEEYELPNRRSYAESCASIANFMWNFRMLLATGDGKFADVMEQVLYNGLLSGISLDGKHYFYFNPLEDYGRTRRQKWFDCACCPPNLARFIVSFPGYMYTTSDDGVQVHLYEKSTARLDFKGSVVEIEQETDYPWSGEVAFTIKTDIEEPFSIYLRLPSWADDFVLRVDGKAVIAKPQNGYVKLSQSWKGKHTVELSLPMKAVFIEAHPFVRDDLGKAAVKRGPVVYCIEQADNPDFHVWTLVLNSESLKEEKGKILDREAVFLKGTGRALDISEWEGKLYRKLSEVREKTVEFTLIPYHMWANREPGAMAVWLKR | soluble
MSKKLTTAAGCPVAHNQNVQTAGKRGPQLLQDVWFLEKLAHFDREVIPERRMHAKGSGAYGTFTVTHDITKYTKAKIFSDIGKKTDMFARFSTVAGERGAADAERDIRGFSLKFYTEEGNWDLAGNNTPVFFLRDPLKFPDLNHAVKRDPRTNMRSAKNNWDFWTSLPEALHQVTIVMSDRGIPATYRHMHGFGSHTFSFINSDNERYWVKFHFVSQQGIKNLSDAEAGELVGNDRESHQRDLLDSIDNQDFPKWTLKVQIMPEADAATVPYNPFDLTKVWPHKDYPLIEVGEFELNRNPQNYFAEVEQAAFNPANVVPGISFSPDKMLQGRLFAYGDAQRYRLGVNHQHIPVNAPRCPVHSYHRDGAMRVDGNFGSTLGYEPNDQGQWAEQPDFSEPPLNLDGAAAHWDHREDEDYFSQPGDLFGLMTAEKQAILFDNTARNLNGVPKEIQLRHVTHCYKADPAYGEGIGKLLGFDISEYNS | soluble
MSKLCKEFSLSATVKNMSRFVDGEEYYTDTEERFNIPWRMFIRKDSGYFDLGLVCEKDSWENREWSIETDYKMKFVSHNGDSLTDSEHFTFENSNKSDVCLMKPWDLLESDYVVDDSIVVEAYVKIIKMTDTPCDEDENIETFLLSNTVKNISSIEEGDDYYTEIATRHNVPWRMQIKRNNGFFELYLRCEKEEQPEWGWKIELDYDLRLVSLNGQSLSLTDSGSFSKPFCEGFEKFMRWNIMEENYIVKDSIIIEARGKITKMIGCDDDSSSDDGEDESSKSHSESDTSSDNLEDEFSECVINVGGQN | not soluble
MSKPTLAVALIVKNEARHLDECLQTVHDWVDEIVVLDSGSHDETEQVARRYTEKFYVNAKWPGFGLQRQLAQSYVQSDYVLWLDADERVTPELKQSILQAVAANKPDTLYQFARLSWVFGRFIRHSGWYPDRVLRLYPTQLTRYNDALVHEKVHVEPSMKVETLAGDAIHYTYNDVHHYLVKSAGYAKAWADQRQAKGKKASLSQGIVHAVGCFLKMYLLKRGFLDGKQGFLIALLSAHSTFVKYADLWARDNDEHYKR | not soluble
MSKPWLFTVHGTGQPDPLGPGLPADTARDVLDIYRWQPIGNYPAAAFPMWPSVEKGVAELILQIELKLDADPYADFAMAGYSQGAIVVGQVLKHHILPPTGRLHRFLHRLKKVIFWGNPMRQKGFAHSDEWIHPVAAPDTLGILEDRLENLEQYGFEVRDYAHDGDMYASIKEDDLHEYEVAIGRIVMKASGFIGGRDSVVAQLIELGQRPITEGIALAGAIIDALTFFARSRMGDKWPHLYNRYPAVEFLRQI | soluble
MSKQELDAALKKAKELASSAPVVVFSKTYCGYCNRVKQLLTQVGASYKVVELDELSDGSQLQSALAHWTGRGTVPNVFIGGKQIGGCDTVVEKHQRNELLPLLQDAAATAKTSAQL | soluble
MSKQPMTPFEAIGGEQCIAILVDTFYSYVSKHPDLSPIFPEDLTETARKQKQFLTQYLGGPNLYTEEHGHPMLRARHLPFEITPKRAEAWLSCMEQAMDDTGVHGHIREFVFERLALTAQHMVNTPNETGEV | not soluble
MSKRDYYETLGVSQDASEKEVKKAYKKLAMKYHPDRTQGDKSKEETFKEVKEAYEILNDDQKRAAYDQYGHAAFEQGGNGGGGGGHGGGFGQDFGDIFGDIFGGGGGGRGRQRQQRGSDLRYNVDLSLEDAVKGKSLEIKVPTYVSCEPCDGSGAKKGTSAKTCSTCHGHGQVQMRQGLFAVQQTCPTCSGKGKVIADKCTSCRGQGRVEKTKTLSVKIPAGVDTGDRIRLSGEGEAGEHGAPAGDLYVQVNVRDHEIFVRDENHLYCEVPISFVTAALGGDIEVPTLGGKVKLKVPKETQTGKMFRLRGKGVKSVRSSTTGDLMCKVVIETPVNLSGDQADLLRQLEEKMASSSKKHSPKETGFFDGVKKFFDDLKS | not soluble
MSKRLPPLNALRVFDAAARHLSFTRAAEELFVTQAAVSHQIKSLEDFLGLKLFRRRNRSLLLTEEGQSYFLDIKEIFSQLTEATRKLQARSAKGALTVSLLPSFAIHWLVPRLSSFNSAYPGIDVRIQAVDRQEDKLADDVDVAIFYGRGNWPGLRVEKLYAEYLLPVCSPLLLTGEKPLKTPEDLAKHTLLHDASRRDWQTYTRQLGLNHINVQQGPIFSHSAMVLQAAIHGQGVALANNVMAQSEIEAGRLVCPFNDVLVSKNAFYLVCHDSQAELGKIAAFRQWILAKAAAEQEKFRFRYEQ | soluble
